According to patent publication US20230030314A1, “Method for Diagnosing Cancer, Cancer Diagnosis Composition, Cancer Diagnosis Kit, Method for Evaluating State of Cancer, and Method for Screening Agents for Preventing and/or Treating Cancer” (Kyushu University, National University Corporation, priority 2019, published 2023):
Ends that are not written are not given here.

Biological target: T1, PKCα (Homo sapiens, UniProt P17252)
T1 construct: endogenous in cells; host or cells: KU-1, KU-7, T24, TCCSUP, UMUC-3 bladder cancer cells
Assay: Phosphorylation of substrate peptide in bladder cancer-derived culture cells, MALDI-TOF MS
Type: biochemical
Conditions: bladder cancer-derived culture cells KU-1, KU-7, T24, TCCSUP, UMUC-3 (0.2 mg/ml cells); 30 μM peptide, 100 μM ATP, 37° C., 60 minutes
Procedure: An α-cyano-4-hydroxycinnamic acid (CHCA) matrix (10 mg/ml) was prepared in 50% water/acetonitrile and 0.1% TFA. This matrix and a sample were mixed in a ratio of 20:1. The resultant specimen/matrix mixture in a total volume of 1 μl was applied on a sample plate, and the resultant was crystallized by drying. In this example, Auto Flex Speed manufactured by Bruker was used in positive or negative mode. An acceleration voltage was set to 20 kV, and extraction delay time was set to 100 ns. Typically, 100 laser shots were averaged to improve a signal/noise ratio. All spectra were analyzed with Flex Analysis software (Bruker). A phosphorylation percentage was defined as an ionic strength ratio between a phosphorylated substance and a non-phosphorylated substance, and was calculated in accordance with existing description (Kang, J. -H. et al., (2007) J. Am. Soc. Mass Spectrom. 18, 106-112; and Kang J. -H. et al., (2007) J. Am. Soc. Mass Spectrom. 18, 1925-1931). In order to examine whether or not the PKCα specific substrate peptide could be phosphorylated by bladder cancer, culture cells derived from 5 different bladder cancers (KU-1, KU-7, T24, TCCSUP, and UMUC-3) were analyzed by MALDI-TOF MS. […] After performing incubation at 37° C. for 60 minutes, the resultant sample was analyzed by MALDI-TOF MS.

Substance: FKKQGSFAKKK-NH2 [substrate peptide]
- phosphorylation percentage of the substrate peptide: high phosphorylation percentages
